Source: patent US20260274985A1 (MYTHIC THERAPEUTICS, published 2026)

target: T1, Human TROP2 Protein, His Tag (Acro Biosystems) (human, UniProt P09758 27-274); experiment: BLI (Octet) [1/2]
T1 construct: Bought antigen used at 50 nM in the Octet screen; also called TACSTD2; not shown: His tag
T1 sequence (looked up): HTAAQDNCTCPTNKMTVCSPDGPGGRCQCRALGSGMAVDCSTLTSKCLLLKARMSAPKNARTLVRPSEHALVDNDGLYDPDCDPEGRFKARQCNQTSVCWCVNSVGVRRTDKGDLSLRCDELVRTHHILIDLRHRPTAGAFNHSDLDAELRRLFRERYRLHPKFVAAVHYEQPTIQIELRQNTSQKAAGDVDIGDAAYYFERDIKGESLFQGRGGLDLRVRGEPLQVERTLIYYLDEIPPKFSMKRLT
Method: After allowing for four days of protein expression, cell culture supernatants were collected, quantified by SDS-PAGE analysis (DNS), and the pH dependence of the variant was evaluated using biolayer interferometry (BLI) on an Octet RED 96e instrument. Briefly, cell culture supernatants were diluted based on qualitative expression level of the variant determined by visual examination of SDS-PAGE gels, 5 μL of cell culture supernatant was diluted into 195 μL of 1×PBST, pH 7.4 for high expressors, 25 μL of cell culture supernatant was diluted into 175 μL of 1×PBST, pH 7.4 for medium expressors and 100 μL of cell culture supernatant was diluted into 100 μL of 1×PBST, pH 7.4 for low expressors for loading onto the sensor tips. The resulting diluted supernatants were then captured on an anti-human Fc sensor (Forte Bio). A baseline was established using 1×PBST (50 mM Potassium Phosphate Buffer+150 mM NaCl+0.05% Tween 20) pH 7.4, and the sensor was associated with 50 nM of TROP2 (Human TROP2 Protein, His Tag, Acro Biosystems) in 1×PBST pH 7.4 for 120 sec to generate an association curve. In the dissociation phase, the antibody-antigen complex on the sensor was exposed to 1×PBST pH 7.4 or pH 5.4, for 300 sec. Association and dissociation phase curves were examined for the starting ABPC antibody (with no substitutions) and each corresponding antibody variant at pH 5.4 and pH 7.4 to inform on two criteria: a) enhanced dissociation (i.e., higher koff values) at pH 5.4 due to histidine or alanine substitution compared to the starting ABPC, (with no substitutions), and b) reduced dissociation at pH 7.4 (i.e., lower koff values) compared to pH 5.4 in the antibody variant itself and with the starting ABPC (with no substitutions). […] It was also noted that while some mutations obliterated TROP2 binding, others were tolerated with little or n change in TROP2 binding kinetics.

Binder | binding result
MYT11705 (antibody, V domains shown, hu7E6SVG variant, His at HCV position 26 (H1 01); screened as IgG in Expi293 supernatant) VH: QVQLQESGPGLVKPSETLSLTCTVSHGSISSYGVHWIRQPPGKGLEWIGVIWTSGVTDYNSALMGRVTISVDTSKNQFSLKLSSVTAADTAVYYCARDGDYDRYTMDYWGQGTLVTVSS VL: DIVMTQSPDSLAVSLGERATINCRASKSVSTSGYSYMHWYQQKPGQPPKLLIYLASNLESGVPDRFSGSGSGTDFTLTISSLQAEDVAVYYCQHSRELPYTFGQGTKLEIK | binds
MYT11708 (antibody, V domains shown, hu7E6SVG variant, His at HCV position 29 (H1 04); screened as IgG in Expi293 supernatant) VH: QVQLQESGPGLVKPSETLSLTCTVSGGSHSSYGVHWIRQPPGKGLEWIGVIWTSGVTDYNSALMGRVTISVDTSKNQFSLKLSSVTAADTAVYYCARDGDYDRYTMDYWGQGTLVTVSS VL: DIVMTQSPDSLAVSLGERATINCRASKSVSTSGYSYMHWYQQKPGQPPKLLIYLASNLESGVPDRFSGSGSGTDFTLTISSLQAEDVAVYYCQHSRELPYTFGQGTKLEIK | binds
MYT11711 (antibody, V domains shown, hu7E6SVG variant, His at HCV position 32 (H1 07); screened as IgG in Expi293 supernatant) VH: QVQLQESGPGLVKPSETLSLTCTVSGGSISSHGVHWIRQPPGKGLEWIGVIWTSGVTDYNSALMGRVTISVDTSKNQFSLKLSSVTAADTAVYYCARDGDYDRYTMDYWGQGTLVTVSS VL: DIVMTQSPDSLAVSLGERATINCRASKSVSTSGYSYMHWYQQKPGQPPKLLIYLASNLESGVPDRFSGSGSGTDFTLTISSLQAEDVAVYYCQHSRELPYTFGQGTKLEIK | binds
MYT11709 (antibody, V domains shown, hu7E6SVG variant, His at HCV position 30 (H1 05); screened as IgG in Expi293 supernatant) VH: QVQLQESGPGLVKPSETLSLTCTVSGGSIHSYGVHWIRQPPGKGLEWIGVIWTSGVTDYNSALMGRVTISVDTSKNQFSLKLSSVTAADTAVYYCARDGDYDRYTMDYWGQGTLVTVSS VL: DIVMTQSPDSLAVSLGERATINCRASKSVSTSGYSYMHWYQQKPGQPPKLLIYLASNLESGVPDRFSGSGSGTDFTLTISSLQAEDVAVYYCQHSRELPYTFGQGTKLEIK | binds
MYT11706 (antibody, V domains shown, hu7E6SVG variant, His at HCV position 27 (H1 02); screened as IgG in Expi293 supernatant) VH: QVQLQESGPGLVKPSETLSLTCTVSGHSISSYGVHWIRQPPGKGLEWIGVIWTSGVTDYNSALMGRVTISVDTSKNQFSLKLSSVTAADTAVYYCARDGDYDRYTMDYWGQGTLVTVSS VL: DIVMTQSPDSLAVSLGERATINCRASKSVSTSGYSYMHWYQQKPGQPPKLLIYLASNLESGVPDRFSGSGSGTDFTLTISSLQAEDVAVYYCQHSRELPYTFGQGTKLEIK | binds
MYT11710 (antibody, V domains shown, hu7E6SVG variant, His at HCV position 31 (H1 06); screened as IgG in Expi293 supernatant) VH: QVQLQESGPGLVKPSETLSLTCTVSGGSISHYGVHWIRQPPGKGLEWIGVIWTSGVTDYNSALMGRVTISVDTSKNQFSLKLSSVTAADTAVYYCARDGDYDRYTMDYWGQGTLVTVSS VL: DIVMTQSPDSLAVSLGERATINCRASKSVSTSGYSYMHWYQQKPGQPPKLLIYLASNLESGVPDRFSGSGSGTDFTLTISSLQAEDVAVYYCQHSRELPYTFGQGTKLEIK | binds
MYT11712 (antibody, V domains shown, hu7E6SVG variant, His at HCV position 33 (H1 08); screened as IgG in Expi293 supernatant) VH: QVQLQESGPGLVKPSETLSLTCTVSGGSISSYHVHWIRQPPGKGLEWIGVIWTSGVTDYNSALMGRVTISVDTSKNQFSLKLSSVTAADTAVYYCARDGDYDRYTMDYWGQGTLVTVSS VL: DIVMTQSPDSLAVSLGERATINCRASKSVSTSGYSYMHWYQQKPGQPPKLLIYLASNLESGVPDRFSGSGSGTDFTLTISSLQAEDVAVYYCQHSRELPYTFGQGTKLEIK | binds
MYT11707 (antibody, V domains shown, hu7E6SVG variant, His at HCV position 28 (H1 03); screened as IgG in Expi293 supernatant) VH: QVQLQESGPGLVKPSETLSLTCTVSGGHISSYGVHWIRQPPGKGLEWIGVIWTSGVTDYNSALMGRVTISVDTSKNQFSLKLSSVTAADTAVYYCARDGDYDRYTMDYWGQGTLVTVSS VL: DIVMTQSPDSLAVSLGERATINCRASKSVSTSGYSYMHWYQQKPGQPPKLLIYLASNLESGVPDRFSGSGSGTDFTLTISSLQAEDVAVYYCQHSRELPYTFGQGTKLEIK | binds

target: T2, TROP2 on TROP2-positive NCI-H1975 cells (human, UniProt P09758 27-323); experiment: cell-based or functional assay
T2 sequence: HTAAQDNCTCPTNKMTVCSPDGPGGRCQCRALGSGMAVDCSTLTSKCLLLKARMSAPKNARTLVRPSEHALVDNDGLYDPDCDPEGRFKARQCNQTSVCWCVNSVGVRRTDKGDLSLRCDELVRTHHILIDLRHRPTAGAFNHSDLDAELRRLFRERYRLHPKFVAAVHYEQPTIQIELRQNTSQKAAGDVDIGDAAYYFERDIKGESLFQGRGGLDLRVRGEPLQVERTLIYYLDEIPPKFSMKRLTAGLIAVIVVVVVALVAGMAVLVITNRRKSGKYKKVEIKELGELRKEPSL

Binder | FOW H1975 (10 nM) [fold over parent antibody]
MYT13446 (antibody, V domains shown) VH: QVQLQESGPGLVKPSETLSLTCTVSGGSISSYGVHWIRQPPGKGLEWIGVIWTSGVTDYNSALMGRVTISVDTSKNQFSLKLSSVTAADTAVYYCARDGDYDHYTMDYWGQGTLVTVSS VL: DIVMTQSPDSLAVSLGERATINCRASKSVSTSGYSYMHWYQQKPGQPPKLLIYLASNLHSGVPDRFSGSGSGTDFTLTISSLQAEDVAVYYCQHSRELPYHFGQGTKLEIK | 1.09
MYT13289 (antibody, V domains shown) VH: QVQLQESGPGLVKPSETLSLTCTVSGGSISSYGVHWIRQPPGKGLEWIGVIWTSGVTDYNSALMGRVTISVDTSKNQFSLKLSSVTAADTAVYYCARDGDYDHYTMDYWGQGTLVTVSS VL: DIVMTQSPDSLAVSLGERATINCRASKSVSTSGYSYMHWYQQKPGQPPKLLIYLASNLESGVPDRFSGSGSGTDFTLTISSLQAEDVAVYYCHHSRELPYTFGQGTKLEIK | 1.37
MYT13299 (antibody, V domains shown) VH: QVQLQESGPGLVKPSETLSLTCTVSGGSISSYGVHWIRQPPGKGLEWIGVIWTSGVTDYNSALMGRVTISVDTSKNQFSLKLSSVTAADTAVYYCARDGDYDHYTMDYWGQGTLVTVSS VL: DIVMTQSPDSLAVSLGERATINCRASKSVSTSGYSYMHWYQQKPGQPPKLLIYLASNLESGVPDRFSGSGSGTDFTLTISSLQAEDVAVYYCQHSRHLPYTFGQGTKLEIK | 1.35
MYT13288 (antibody, V domains shown) VH: QVQLQESGPGLVKPSETLSLTCTVSGGSISSYGVHWIRQPPGKGLEWIGVIWTSGVTDYNSALMGRVTISVDTSKNQFSLKLSSVTAADTAVYYCARDGDYHRYTMDYWGQGTLVTVSS VL: DIVMTQSPDSLAVSLGERATINCRASKSVSTSGYSYMHWYQQKPGQPPKLLIYLASNLESGVPDRFSGSGSGTDFTLTISSLQAEDVAVYYCHHSRELPYTFGQGTKLEIK | 1.15
MYT13283 (antibody, V domains shown) VH: QVQLQESGPGLVKPSETLSLTCTVSGGSISSYGVHWIRQPPGKGLEWIGVIWTSGVTDYNSALMGRVTISVDTSKNQFSLKLSSVTAADTAVYYCARDGDYHRYTMDYWGQGTLVTVSS VL: DIVMTQSPDSLAVSLGERATINCRASKSVSTSGYSYMHWYQQKPGQPPKLLIYLASNLEHGVPDRFSGSGSGTDFTLTISSLQAEDVAVYYCQHSRELPYTFGQGTKLEIK | 1.51
MYT13300 (antibody, V domains shown) VH: QVQLQESGPGLVKPSETLSLTCTVSGGSISSYGVHWIRQPPGKGLEWIGVIWTSGVTDYNSALMGRVTISVDTSKNQFSLKLSSVTAADTAVYYCARDGDYDRYTHDYWGQGTLVTVSS VL: DIVMTQSPDSLAVSLGERATINCRASKSVSTSGYSYMHWYQQKPGQPPKLLIYLASNLESGVPDRFSGSGSGTDFTLTISSLQAEDVAVYYCQHSRHLPYTFGQGTKLEIK | 1.39
MYT13279 (antibody, V domains shown) VH: QVQLQESGPGLVKPSETLSLTCTVSGGSISSYGVHWIRQPPGKGLEWIGVIWTSGVTDYNSALMGRVTISVDTSKNQFSLKLSSVTAADTAVYYCARDGDYDHYTMDYWGQGTLVTVSS VL: DIVMTQSPDSLAVSLGERATINCRASKSVSTSGYSYMHWYQQKPGQPPKLLIYLASNLHSGVPDRFSGSGSGTDFTLTISSLQAEDVAVYYCQHSRELPYTFGQGTKLEIK | 1.37
